# Test results as given in paper PMC3391102 (The Journal of Biological Chemistry, 2012).
# Target: Full-length NOD2 (purified recombinant, tags removed) (UniProt Q9HC29 1-1040)
# Assay: SPR
# Chain of Full-length NOD2 (purified recombinant, tags removed) (Q9HC29 whole entry): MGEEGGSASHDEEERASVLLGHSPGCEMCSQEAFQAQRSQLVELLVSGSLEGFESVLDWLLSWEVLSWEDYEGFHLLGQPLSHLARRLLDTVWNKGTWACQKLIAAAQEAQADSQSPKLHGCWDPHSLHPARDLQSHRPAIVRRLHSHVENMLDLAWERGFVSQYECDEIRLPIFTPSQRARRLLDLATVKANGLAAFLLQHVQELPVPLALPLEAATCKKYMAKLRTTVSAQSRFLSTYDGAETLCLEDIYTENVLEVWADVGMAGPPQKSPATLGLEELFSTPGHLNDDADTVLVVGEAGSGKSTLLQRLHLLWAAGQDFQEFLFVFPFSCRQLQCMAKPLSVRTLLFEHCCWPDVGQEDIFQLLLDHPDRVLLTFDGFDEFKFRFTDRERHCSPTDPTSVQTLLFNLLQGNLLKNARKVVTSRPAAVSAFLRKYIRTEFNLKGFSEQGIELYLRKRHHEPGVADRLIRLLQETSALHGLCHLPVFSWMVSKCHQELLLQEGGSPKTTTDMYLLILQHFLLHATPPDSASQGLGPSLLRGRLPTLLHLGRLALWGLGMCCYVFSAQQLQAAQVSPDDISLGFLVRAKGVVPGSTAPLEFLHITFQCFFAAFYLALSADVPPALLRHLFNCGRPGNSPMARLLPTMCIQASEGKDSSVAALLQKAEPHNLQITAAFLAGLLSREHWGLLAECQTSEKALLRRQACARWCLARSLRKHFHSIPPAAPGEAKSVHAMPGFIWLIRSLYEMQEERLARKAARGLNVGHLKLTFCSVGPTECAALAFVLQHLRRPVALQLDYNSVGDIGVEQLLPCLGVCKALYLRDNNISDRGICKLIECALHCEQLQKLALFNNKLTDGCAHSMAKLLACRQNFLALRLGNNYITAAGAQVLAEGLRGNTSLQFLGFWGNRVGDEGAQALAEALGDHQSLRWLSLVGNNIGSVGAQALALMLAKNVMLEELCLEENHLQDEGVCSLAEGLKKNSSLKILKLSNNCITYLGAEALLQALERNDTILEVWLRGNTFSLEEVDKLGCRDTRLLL
binder,measurement,value
NOD2 CARDs (residues Met28-Arg227) (domain or fragment) MCSQEAFQAQRSQLVELLVSGSLEGFESVLDWLLSWEVLSWEDYEGFHLLGQPLSHLARRLLDTVWNKGTWACQKLIAAAQEAQADSQSPKLHGCWDPHSLHPARDLQSHRPAIVRRLHSHVENMLDLAWERGFVSQYECDEIRLPIFTPSQRARRLLDLATVKANGLAAFLLQHVQELPVPLALPLEAATCKKYMAKLR,Kd,12.4 ± 0.58 µM
